From the supplement of paper PMC10065799, “High-throughput profiling of sequence recognition by tyrosine kinases and SH2 domains using bacterial peptide display” (eLife, 2023)

Biological target: Hck (UniProt P08631)
Assay: phosphorylation enrichment, bacterial display (enrichment ratio); higher = better substrate or ligand; peptides without Tyr show the background
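Note: 11-residue human phosphosite peptides and single-mutation variants displayed on the E. coli surface, counted by deep sequencing, each peptide's frequency after selection divided by its frequency in the unselected input library; frequency after pTyr selection over input frequency; kinase dosed for 20-30% of maximal phosphorylation in three min.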

Sequence of Hck (P08631 whole entry, looked up): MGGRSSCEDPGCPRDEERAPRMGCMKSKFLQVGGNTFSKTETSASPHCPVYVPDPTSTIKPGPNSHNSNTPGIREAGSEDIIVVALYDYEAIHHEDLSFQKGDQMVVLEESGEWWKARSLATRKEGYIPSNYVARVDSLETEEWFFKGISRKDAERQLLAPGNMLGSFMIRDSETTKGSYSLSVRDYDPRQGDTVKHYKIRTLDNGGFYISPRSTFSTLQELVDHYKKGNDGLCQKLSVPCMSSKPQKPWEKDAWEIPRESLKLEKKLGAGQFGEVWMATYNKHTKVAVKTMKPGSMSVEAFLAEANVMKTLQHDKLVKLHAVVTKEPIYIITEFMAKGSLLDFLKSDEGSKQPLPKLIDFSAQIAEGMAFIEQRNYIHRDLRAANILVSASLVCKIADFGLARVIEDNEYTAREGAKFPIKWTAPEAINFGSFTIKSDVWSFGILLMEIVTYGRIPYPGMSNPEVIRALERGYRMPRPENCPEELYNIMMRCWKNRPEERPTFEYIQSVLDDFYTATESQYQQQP

Sequence | phosphorylation enrichment
CDTKLYTSAPN [DNTTIP2_Y427] | 0.776
MSSHHYDYKKY [ZNF445_Y428] | 0.421
FSAPNCCFRCG [PPP2CA_Y265_Y265C_YF] | 0.479
AGQEEYSAMRD [HRAS_Y64] | 0.498
ENAGFYFRISA | 0.492
QNTGNYFDLFG [PTPN11_Y62_D61N_YF] | 0.49
SRDPFYEMLTA [CYTH1_Y382_A386T] | 5.45
PEADKYHLTYA [FGG_Y300_R301H] | 0.701
LIGRGYDDPEV [HSPA9_Y128_R127G] | 0.931
SEKISYVFMKR [SSX7_Y48_L43S_YF] | 0.46
TKFVAYIESQG [KDM4B_Y34_N29T_YF] | 0.578
GIFSGYDDAWD [POLR1C_Y36_N32I_YF] | 0.547
QEIATCRRLLE [KRT14_Y415_Y415C] | 0.635
RQQQDYWLMDV [ANPEP_Y600_I603M] | 0.487
TSEASYYKSLN [NGEF_Y288] | 0.407
PEIIAYQPYGK [PRKCG_Y529] | 0.82
PLLLSYFLIKW [NUP160_Y773_YF] | 0.761

Sequence | phosphorylation enrichment
SVVVCYEPPEV [TP53_Y220_P219C] | 0.616
RMSQRYRDVLQ [CYP1A2_Y72_G73R] | 0.66
KDHLDYKFQPR [SOX9_Y172_P170L_YF] | 0.352
EAVKNYTDKRG [PBRM1_Y672] | 0.38
EADRKYEEVAH [TPM3_Y163_R168H] | 0.531
SKEPYYVRCIK [MYO1D_Y586] | 0.405
RRKRAYVEIEF [MAK16_Y282_Q277R_YF] | 0.505
FEGRSYSACTT [MMP9_Y241] | 0.557
EPSLVYMVTKI [CPS1_Y768_D767V] | 1.26
DFPIGYPSYLA [TBCK_Y153] | 0.422
ANARMYGVLPW [PLP1_Y207_D203N] | 6.06
LVMFIYAIFWM [SCN1A_Y1684_G1688W] | 0.558
KLQKYYRKNPD [EHHADH_Y683_Q685K] | 0.341
PKGWNYELPAT [PROM1_Y34_A31G] | 0.516
YSGIYYKPESL [L2HGDH_Y103_H98Y] | 8.46
QAEEWYFGKMG [YES1_Y159] | 0.847

Biological target: Jak2 (UniProt O60674)
Assay: as above

Sequence of Jak2 (O60674 whole entry, looked up): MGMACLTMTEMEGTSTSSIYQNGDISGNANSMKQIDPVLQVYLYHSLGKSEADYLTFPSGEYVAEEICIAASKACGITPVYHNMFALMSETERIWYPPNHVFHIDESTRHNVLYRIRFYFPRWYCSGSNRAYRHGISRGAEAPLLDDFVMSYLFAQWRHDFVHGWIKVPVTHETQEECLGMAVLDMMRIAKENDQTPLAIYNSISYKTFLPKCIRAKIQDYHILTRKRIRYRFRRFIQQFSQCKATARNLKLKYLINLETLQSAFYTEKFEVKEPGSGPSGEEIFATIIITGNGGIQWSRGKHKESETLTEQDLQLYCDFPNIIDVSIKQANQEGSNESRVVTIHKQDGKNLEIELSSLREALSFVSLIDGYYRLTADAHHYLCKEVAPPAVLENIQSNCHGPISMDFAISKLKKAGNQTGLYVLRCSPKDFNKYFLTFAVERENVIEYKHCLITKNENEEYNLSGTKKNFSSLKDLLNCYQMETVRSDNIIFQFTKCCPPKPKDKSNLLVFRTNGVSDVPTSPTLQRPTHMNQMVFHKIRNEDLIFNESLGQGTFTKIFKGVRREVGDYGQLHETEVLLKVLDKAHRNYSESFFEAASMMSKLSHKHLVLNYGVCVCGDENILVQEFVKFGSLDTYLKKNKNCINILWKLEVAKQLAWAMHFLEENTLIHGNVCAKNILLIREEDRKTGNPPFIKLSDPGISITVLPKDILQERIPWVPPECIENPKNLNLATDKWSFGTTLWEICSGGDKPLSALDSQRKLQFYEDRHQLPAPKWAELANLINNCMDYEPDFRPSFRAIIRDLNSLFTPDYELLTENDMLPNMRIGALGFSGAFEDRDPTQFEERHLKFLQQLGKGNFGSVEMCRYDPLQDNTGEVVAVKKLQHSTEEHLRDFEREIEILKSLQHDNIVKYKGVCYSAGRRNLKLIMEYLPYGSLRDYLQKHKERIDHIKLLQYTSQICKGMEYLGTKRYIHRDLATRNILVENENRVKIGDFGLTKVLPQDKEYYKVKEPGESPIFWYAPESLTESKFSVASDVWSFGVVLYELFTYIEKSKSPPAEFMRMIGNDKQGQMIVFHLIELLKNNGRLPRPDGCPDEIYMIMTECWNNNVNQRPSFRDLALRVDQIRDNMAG

Sequence | phosphorylation enrichment
CDTKLYTSAPN [DNTTIP2_Y427] | 0.936
MSSHHYDYKKY [ZNF445_Y428] | 0.441
FSAPNCCFRCG [PPP2CA_Y265_Y265C_YF] | 0.833
AGQEEYSAMRD [HRAS_Y64] | 0.788
ENAGFYFRISA | 1.55
QNTGNYFDLFG [PTPN11_Y62_D61N_YF] | 4.13
SRDPFYEMLTA [CYTH1_Y382_A386T] | 0.975
PEADKYHLTYA [FGG_Y300_R301H] | 0.908
LIGRGYDDPEV [HSPA9_Y128_R127G] | 0.868
SEKISYVFMKR [SSX7_Y48_L43S_YF] | 1.05
TKFVAYIESQG [KDM4B_Y34_N29T_YF] | 1.12
GIFSGYDDAWD [POLR1C_Y36_N32I_YF] | 1.07
QEIATCRRLLE [KRT14_Y415_Y415C] | 0.643
RQQQDYWLMDV [ANPEP_Y600_I603M] | 1.26
TSEASYYKSLN [NGEF_Y288] | 0.802
PEIIAYQPYGK [PRKCG_Y529] | 1.31
PLLLSYFLIKW [NUP160_Y773_YF] | 3.01

Sequence | phosphorylation enrichment
SVVVCYEPPEV [TP53_Y220_P219C] | 1.07
RMSQRYRDVLQ [CYP1A2_Y72_G73R] | 0.905
KDHLDYKFQPR [SOX9_Y172_P170L_YF] | 0.922
EAVKNYTDKRG [PBRM1_Y672] | 0.56
EADRKYEEVAH [TPM3_Y163_R168H] | 0.938
SKEPYYVRCIK [MYO1D_Y586] | 1
RRKRAYVEIEF [MAK16_Y282_Q277R_YF] | 0.593
FEGRSYSACTT [MMP9_Y241] | 0.947
EPSLVYMVTKI [CPS1_Y768_D767V] | 1.04
DFPIGYPSYLA [TBCK_Y153] | 0.829
ANARMYGVLPW [PLP1_Y207_D203N] | 0.616
LVMFIYAIFWM [SCN1A_Y1684_G1688W] | 0.963
KLQKYYRKNPD [EHHADH_Y683_Q685K] | 0.486
PKGWNYELPAT [PROM1_Y34_A31G] | 0.698
YSGIYYKPESL [L2HGDH_Y103_H98Y] | 6.33
QAEEWYFGKMG [YES1_Y159] | 1.44

Biological target: MERTK (UniProt Q12866)
Assay: as above

Sequence of MERTK (Q12866 whole entry, looked up): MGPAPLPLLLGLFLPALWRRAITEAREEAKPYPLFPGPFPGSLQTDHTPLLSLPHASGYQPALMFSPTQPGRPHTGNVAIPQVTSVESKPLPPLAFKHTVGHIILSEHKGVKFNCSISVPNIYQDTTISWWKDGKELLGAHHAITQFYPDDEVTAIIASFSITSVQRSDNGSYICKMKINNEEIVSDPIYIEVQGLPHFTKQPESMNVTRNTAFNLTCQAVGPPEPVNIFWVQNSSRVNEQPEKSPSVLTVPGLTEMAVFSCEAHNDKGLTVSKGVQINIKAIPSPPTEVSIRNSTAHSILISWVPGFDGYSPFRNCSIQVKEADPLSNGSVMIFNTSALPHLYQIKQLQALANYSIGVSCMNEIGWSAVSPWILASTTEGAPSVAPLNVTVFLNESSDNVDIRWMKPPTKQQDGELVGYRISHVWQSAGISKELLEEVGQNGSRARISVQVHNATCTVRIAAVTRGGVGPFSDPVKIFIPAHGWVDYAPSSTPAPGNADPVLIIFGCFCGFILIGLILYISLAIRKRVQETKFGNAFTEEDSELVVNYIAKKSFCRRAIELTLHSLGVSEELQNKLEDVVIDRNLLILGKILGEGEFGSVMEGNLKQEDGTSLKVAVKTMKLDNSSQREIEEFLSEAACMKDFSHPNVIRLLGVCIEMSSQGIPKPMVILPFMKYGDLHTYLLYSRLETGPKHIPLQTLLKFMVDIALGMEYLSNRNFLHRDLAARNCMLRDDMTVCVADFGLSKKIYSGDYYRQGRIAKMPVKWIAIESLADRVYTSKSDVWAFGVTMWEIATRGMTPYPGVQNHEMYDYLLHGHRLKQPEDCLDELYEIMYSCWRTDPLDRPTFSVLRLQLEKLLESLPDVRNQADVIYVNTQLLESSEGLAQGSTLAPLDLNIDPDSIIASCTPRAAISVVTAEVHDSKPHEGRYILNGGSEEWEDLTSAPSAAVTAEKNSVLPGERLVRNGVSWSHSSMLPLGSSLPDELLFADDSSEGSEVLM

Sequence | phosphorylation enrichment
CDTKLYTSAPN [DNTTIP2_Y427] | 0.679
MSSHHYDYKKY [ZNF445_Y428] | 0.339
FSAPNCCFRCG [PPP2CA_Y265_Y265C_YF] | 0.486
AGQEEYSAMRD [HRAS_Y64] | 0.418
ENAGFYFRISA | 0.36
QNTGNYFDLFG [PTPN11_Y62_D61N_YF] | 10.8
SRDPFYEMLTA [CYTH1_Y382_A386T] | 8.32
PEADKYHLTYA [FGG_Y300_R301H] | 0.742
LIGRGYDDPEV [HSPA9_Y128_R127G] | 0.602
SEKISYVFMKR [SSX7_Y48_L43S_YF] | 0.378
TKFVAYIESQG [KDM4B_Y34_N29T_YF] | 0.307
GIFSGYDDAWD [POLR1C_Y36_N32I_YF] | 0.481
QEIATCRRLLE [KRT14_Y415_Y415C] | 0.407
RQQQDYWLMDV [ANPEP_Y600_I603M] | 3.29
TSEASYYKSLN [NGEF_Y288] | 0.535
PEIIAYQPYGK [PRKCG_Y529] | 0.589
PLLLSYFLIKW [NUP160_Y773_YF] | 0.558

Sequence | phosphorylation enrichment
SVVVCYEPPEV [TP53_Y220_P219C] | 0.457
RMSQRYRDVLQ [CYP1A2_Y72_G73R] | 0.522
KDHLDYKFQPR [SOX9_Y172_P170L_YF] | 0.409
EAVKNYTDKRG [PBRM1_Y672] | 0.478
EADRKYEEVAH [TPM3_Y163_R168H] | 0.474
SKEPYYVRCIK [MYO1D_Y586] | 0.403
RRKRAYVEIEF [MAK16_Y282_Q277R_YF] | 0.759
FEGRSYSACTT [MMP9_Y241] | 0.492
EPSLVYMVTKI [CPS1_Y768_D767V] | 0.454
DFPIGYPSYLA [TBCK_Y153] | 0.463
ANARMYGVLPW [PLP1_Y207_D203N] | 0.734
LVMFIYAIFWM [SCN1A_Y1684_G1688W] | 0.527
KLQKYYRKNPD [EHHADH_Y683_Q685K] | 0.369
PKGWNYELPAT [PROM1_Y34_A31G] | 0.45
YSGIYYKPESL [L2HGDH_Y103_H98Y] | 10.9
QAEEWYFGKMG [YES1_Y159] | 0.439

Test system: c-Abl (mouse)
Assay: as above

Sequence | phosphorylation enrichment
CDTKLYTSAPN [DNTTIP2_Y427] | 0.922
MSSHHYDYKKY [ZNF445_Y428] | 0.438
FSAPNCCFRCG [PPP2CA_Y265_Y265C_YF] | 0.658
AGQEEYSAMRD [HRAS_Y64] | 0.678
ENAGFYFRISA | 1
QNTGNYFDLFG [PTPN11_Y62_D61N_YF] | 1.28
SRDPFYEMLTA [CYTH1_Y382_A386T] | 0.71
PEADKYHLTYA [FGG_Y300_R301H] | 1.15
LIGRGYDDPEV [HSPA9_Y128_R127G] | 0.756
SEKISYVFMKR [SSX7_Y48_L43S_YF] | 0.822
TKFVAYIESQG [KDM4B_Y34_N29T_YF] | 0.64
GIFSGYDDAWD [POLR1C_Y36_N32I_YF] | 0.746
QEIATCRRLLE [KRT14_Y415_Y415C] | 0.641
RQQQDYWLMDV [ANPEP_Y600_I603M] | 0.587
TSEASYYKSLN [NGEF_Y288] | 0.658
PEIIAYQPYGK [PRKCG_Y529] | 1.15
PLLLSYFLIKW [NUP160_Y773_YF] | 1.33

Sequence | phosphorylation enrichment
SVVVCYEPPEV [TP53_Y220_P219C] | 0.849
RMSQRYRDVLQ [CYP1A2_Y72_G73R] | 0.769
KDHLDYKFQPR [SOX9_Y172_P170L_YF] | 0.642
EAVKNYTDKRG [PBRM1_Y672] | 0.489
EADRKYEEVAH [TPM3_Y163_R168H] | 0.703
SKEPYYVRCIK [MYO1D_Y586] | 0.705
RRKRAYVEIEF [MAK16_Y282_Q277R_YF] | 0.58
FEGRSYSACTT [MMP9_Y241] | 0.856
EPSLVYMVTKI [CPS1_Y768_D767V] | 0.89
DFPIGYPSYLA [TBCK_Y153] | 0.619
ANARMYGVLPW [PLP1_Y207_D203N] | 0.846
LVMFIYAIFWM [SCN1A_Y1684_G1688W] | 0.739
KLQKYYRKNPD [EHHADH_Y683_Q685K] | 0.394
PKGWNYELPAT [PROM1_Y34_A31G] | 0.696
YSGIYYKPESL [L2HGDH_Y103_H98Y] | 29.5
QAEEWYFGKMG [YES1_Y159] | 1.05
